The values below are quoted from earlier work in US20240382567A1, “Long-acting PTH compound treatments” (Ascendis Pharma Bone Diseases A/S, priority 2021, published 2024).

Where two headings read alike, the source gives them in different places.

The data set relates to patients with hypoparathyroidism.

B1: PTH(1-84): daily injection of PTH(1-84), approved as adjunct to calcium and vitamin D to control hypocalcemia in hypoparathyroidism (protein, UniProt P01270 32-115, looked up)
Parathyroid hormone: SVSEIQLMHNLGKHLNSMERVEWLRKKLQDVHNFVALGAPLAPRDAGSQRPRKKEDNVLVESHEKSLGEADKADVNVLTKAKSQ
modifications: Parathyroid hormone
notes: daily injection of PTH(1-84), approved as adjunct to calcium and vitamin D to control hypocalcemia in hypoparathyroidism
On to B1, for which the “Total hip BMD increase from baseline” value (3 years, P=0.04) is given as 2.10%. For the setting “at 24 months, P=0.01”, the “Lumbar spine BMD increase” value was 3.2%. Further, the “Distal one third radius BMD mean loss” value (study conclusion (year 6), P=0.0001 vs baseline) was 4.4%. Besides, the “Femoral neck BMD increase” value (year 3, P=0.04) was 2.6%. Further, for the setting “year 6”, the “Distal one third radius T-score” value is −0.28 and the “Femoral neck BMD versus baseline” value is “not different from baseline”. Besides, the “Lumbar spine BMD mean gain from baseline” value (year 6, P=0.004) was 3.8%. The “Total hip BMD increase from baseline” value (year 6, P=0.02) is on record as 2.4%.
